Measurements from patent US20250179187A1, “ANTI PD-L2 ANTIBODY” (REJUVERON SENESCENCE THERAPEUTICS AG, priority 2022, published 2025).

How the values were obtained:
[1] = target: T1, cellular hPD-L2 expressed on CHOK-1 cells (Homo sapiens, UniProt Q9BQ51); assay: Binding of antibodies to cellular hPD-L2 on CHO-K1 cells by flow cytometry; details: compared to a panel of commercially available anti-PD-L2 antibodies
T1 construct: GFP; expressed in transfected cells; host or cells: CHO-K1
T1 sequence (Q9BQ51 20-273): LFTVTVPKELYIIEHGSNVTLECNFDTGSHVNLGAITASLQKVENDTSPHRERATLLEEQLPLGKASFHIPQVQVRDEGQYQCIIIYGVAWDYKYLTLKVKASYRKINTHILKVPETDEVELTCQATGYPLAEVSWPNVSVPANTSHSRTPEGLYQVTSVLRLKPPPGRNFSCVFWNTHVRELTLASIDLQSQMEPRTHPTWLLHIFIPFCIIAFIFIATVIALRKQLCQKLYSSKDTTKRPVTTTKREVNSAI
Protocol: CHO-K1 cells over-expressing either hPDL2-GFP or mPD-L2 GFP were detached, washed in phosphate buffered saline (PBS) and adjusted to a cell concentration of around 1 million cells in cytometry buffer (CB, PBS containing 1% […]). Around 80,000 cells were then distributed into a round-bottom 96 well plate and the plate was centrifuged for 3 minutes at 400 g at 4° C. and supernatant discarded. Appropriate antibody concentrations in 50 microliter volumes were added to the wells and incubated for 30 minutes at 6-8° C. The plate was washed 3 times with PBS and relevant secondary antibodies (either AlexaFluor 647 Goat anti-Mouse IgG (H+L) (Invitrogen A21235/lot 1915807) or AlexaFluor 647 Goat anti-Rat IgG (H+L) (Invitrogen A21247/lot 1921562) were added for 30 minutes at 4° C. Cells were again washed with PBS two times, resuspended in CB and analyzed in either the Sony ID7000 Spectral Cell analyzer (Sony) or the GALLIOS Flow Cytometer (Beckman-Coulter) was used. EC50 was calculated using the Sigmoidal 4PL equation of the GraphPad Prism-9 software.

recombinant hPD-L2 = target: T2, recombinant hPD-L2 (Homo sapiens, UniProt Q9BQ51); assay: ELISA with recombinant hPD-L2; type: binding; details: compared to a panel of commercially available anti-PD-L2 antibodies
T2 sequence (Q9BQ51 20-273): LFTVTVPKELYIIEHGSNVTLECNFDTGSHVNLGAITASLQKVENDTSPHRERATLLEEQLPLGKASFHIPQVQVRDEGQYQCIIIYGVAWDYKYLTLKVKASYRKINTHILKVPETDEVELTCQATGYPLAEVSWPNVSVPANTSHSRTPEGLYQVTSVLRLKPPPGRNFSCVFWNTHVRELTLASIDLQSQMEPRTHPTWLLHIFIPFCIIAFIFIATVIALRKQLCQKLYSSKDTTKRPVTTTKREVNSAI

hPD-L2/hPD-1 interaction = target: T3, hPD-L2/hPD-1 interaction (Homo sapiens, UniProt Q9BQ51); assay: Reporter assay, blocking of cellular hPD-L2/hPD-1 interaction (Jurkat hPD-1 / CHO-K1 hPD-L2 co-culture); type: cell-based; details: reporter in hPD-1 Jurkat cells co-cultured with hPD-L2 CHO-K1 cells; compared to MIH-18, 24F.10C12 and D7U86
T3 construct: host or cells: CHO-K1 (hPD-L2) co-cultured with Jurkat PD-1 effector cells
T3 sequence (Q9BQ51 20-273): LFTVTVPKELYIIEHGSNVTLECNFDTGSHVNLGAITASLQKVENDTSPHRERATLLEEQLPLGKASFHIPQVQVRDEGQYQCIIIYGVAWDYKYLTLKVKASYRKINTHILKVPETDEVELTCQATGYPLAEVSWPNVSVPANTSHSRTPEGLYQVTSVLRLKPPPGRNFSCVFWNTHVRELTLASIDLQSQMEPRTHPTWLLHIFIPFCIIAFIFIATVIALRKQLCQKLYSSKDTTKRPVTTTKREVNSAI
Protocol: Cellular blocking activity of antibodies according to the present invention was assessed by with the Promega (Southampton, Hampshire, UK) PD-1/PD-L2 blockade bioassay (Promega, Cat No. CS187131-1), which is a bioluminescent cell-based assay that is used to measure the potency and stability of antibodies and other biologics designed to block the hPD-1/PD-L2 interaction. In brief, CHO-K1 cells overexpressing hPD-L2 were thawed and plated in a 96 well plate. The following day, appropriate concentrations of antibodies were added to the wells. Jurkat PD-1 effector cells, expressing a luminescent NFAT reporter for cell activation, were subsequently thawed and added to the wells immediately. The co-culture was incubated for 6 hours and read using the SpectraMax i3× reader (Molecular Devices, Wokingham, UK). GraphPad Prism 9.0 (GraphPad Software, La Jolla, Ca) was used for the data analysis and data was plotted using a four-parameter non-linear regression model.

[2] = target: T4, recombinant hPD-1 binding to CHOK-1 cell expressing hPD-L2 (Homo sapiens, UniProt Q9BQ51); assay: Blocking of recombinant hPD-1 binding to cellular hPD-L2 by flow cytometry; type: cell-based; details: compared to a panel of commercially available anti-PD-L2 antibodies
T4 construct: GFP; host or cells: CHO-K1
T4 sequence (Q9BQ51 20-273): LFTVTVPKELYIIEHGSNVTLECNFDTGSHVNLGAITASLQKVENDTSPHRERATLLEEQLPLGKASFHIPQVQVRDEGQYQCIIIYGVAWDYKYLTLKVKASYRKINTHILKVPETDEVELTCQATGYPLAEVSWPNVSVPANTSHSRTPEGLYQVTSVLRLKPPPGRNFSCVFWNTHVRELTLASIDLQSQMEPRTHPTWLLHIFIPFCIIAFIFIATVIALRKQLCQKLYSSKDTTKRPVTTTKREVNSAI
Protocol: CHO-K1 cells over-expressing either hPDL2-GFP were detached, washed in phosphate buffered saline (PBS) and adjusted to a cell concentration of around 1 million cells in CB. Around 80,000 cells were then distributed into a round-bottom 96 well plate and the plate was centrifuged for 3 minutes at 400 g at 4° C. and supernatant discarded. A constant concentration of ligand recombinant hPD-1 ligand (Sino Biological 10377-H08H/lot LC13JA2207) of 15 micrograms/mL was incubated with respective concentration of antibody, added to the cells and incubated for 30 min at 6-8° C. Cells were washed 3 times in PBS and then incubated with a rabbit polyclonal anti-His (Abcam Ab1187/lot GR3369369-1) in CB and subsequently washed three times in PBS. Cells were then incubated with a labeled anti-rabbit secondary (AlexaFluor 647 Goat anti-Rabbit IgG (H+L) (Invitrogen A21244/lot 1910774) for 15 minutes at 4° C., washed two times in PBS, resuspended in CB and analyzed in the Sony ID7000 Spectral Cell analyzer (Sony).

PyMT mammary tumor = assay: Implantable mouse PyMT mammary tumor model; type: in vivo; details: in combination with doxorubicin, up to day 49, compared to TY-25 in combination with doxorubicin
Protocol: 1 million PyMT cells were injected in PBS into the right mammary fat pad number 4, with an N=10 animals per treatment group. When tumors reached an average of 100 millimeter cubed on day 17 post-injection, treatment regimens were initiated. All mice were sorted into study groups based on caliper estimation of tumor burden. The mice were distributed to ensure that the mean tumor burden for all groups was within 10% of the overall mean tumor burden for the study population. The first dose of doxorubicin was administered intraperitoneally at 4 mg/kg, as well as the antibodies, all at doses of 10 mg/kg intraperitoneally, on day 17 post-implantation. Doxorubicin (MWI Animal Health, BJ0080A/NA) was administered once more on day 24 and antibodies on days 20, 24, 27, 31, 34, 38, 41. The following commercial antibodies were used in the study: anti-mouse PD-L2 (clone TY-25, Bio X Cell lot/cat 0411901. Vehicle-treated animals received only vehicle solvent for doxorubicin as a no-treatment control. Tumor volume was measured at least 2-3 times per week throughout the study with a standard caliper.

B1: VH0/VK0-mIgG1: parental murine anti-PD-L2 antibody on mIgG1 backbone; SEQ ID NO: 21/SEQ ID NO: 22 (antibody, V domains shown)
VH: QVQLQQSGAELVRPGTSVKVSCKASGYAFSNYFIEWVKQRPGQGLEWIGLNIPGSGGSNYAEKFKGKATLTADKSSSTAYMQLSSLTSEDSAVYFCARRRLPPDWYFDVWGTGTTVTVSS
VL: DVVMTQTPLSLPVSLGDQASISCRSSQSLVHSDGNTYLHWYLQKPGQSPKLLIYKVSNRFSGVPDRFSGSGSGTDFTLKISRVEAEDLGVYFCSQSTHVPWTFGGGTKLEIK
**Q.** How did the “binding activity against cellular hPD-L2” value [1] turn out when B1 was run?
**A.** superior binding activity

**Q.** What about the “binding activity against recombinant hPD-L2” value (recombinant hPD-L2) of the same molecule?
**A.** superior binding activity

**Q.** And the “blocking activity against cellular hPD-L2/hPD-1 interaction” value (hPD-L2/hPD-1 interaction)?
**A.** superior blocking activities

**Q.** And the “blocking activity against recombinant hPD-1 binding to CHOK-1 cell expressing hPD-L2” value [2]?
**A.** superior blocking activity

**Q.** What about the progression of tumors (PyMT mammary tumor) of the same molecule?
**A.** smaller progression of tumors
